Consider eight sequences from PMC7022617.

The subject of data set [1] is hemagglutinin H3 on virus particles (Influenza A virus A/England/42/1972 (H3N2)). Put plainly: ELAA.
The test system of data set [2] is hemagglutinin H5 on virus particles (Influenza A virus A/chicken/Kurgan/3654at/2005 (H5N1)). Put plainly: ELAA.
The subject of data set [3] is hemagglutinin H7 on virus particles (Influenza A virus A/mallard/Sweden/91/2002 (H7N9)). Nature of the data set: ELAA.
Data set [4] concerns hemagglutinin H9 on virus particles (Influenza A virus A/duck/Primorie/3628/2002 (H9N2)). Put plainly: ELAA.
For data set [5], the system named is hemagglutinin HA1 subunit H1 (recombinant, Abcam ab69741) (Influenza A virus H1 (strain not given)). Nature of the data set: SPR. In general terms: SPR reads the build-up and loss of mass on a sensor chip optically.
For data set [6], the system named is hemagglutinin HA1 subunit H3 (recombinant, Abcam ab69749) (Influenza A virus H3 (strain not given)). Nature of the data set: SPR.
Data set [7] concerns hemagglutinin HA1 subunit H9 (recombinant, Abcam ab67740) (Influenza A virus H9 (strain not given)). Put plainly: SPR.

On to “TTGGGGTAAGAAGGGAGGGCGGGGGTT [5'-biotin G7-TAAGAA]”, for which the Kd in data set [1] worked out at 17 nM; in data set [2], 9 nM; in data set [3], 13 nM; in data set [4], 7 nM.

With TTGGGGTAAGAAGGGAGGGCGGGGGTT [G7-TAAGAA], the Kd in data set [5], in data set [6] and in data set [7] was 60 nM in each case.

In the case of “TTGGGGTTAGGGAGGGCGGGGGTT [5'-biotin G7-TTA]”, the Kd in data set [1] came to 7 nM; in data set [2], 13 nM; in data set [3] it was 6 nM; in data set [4] it was 10 nM.

As to TTGGGGTTAGGGAGGGCGGGGGTT [G7-TTA], the Kd in data set [5] was determined as 30 nM; in data set [6], 16 nM; in data set [7] it was 28 nM.

On to “TTGGGGTTATTAAGGGAGGGCGGGGGTT [5'-biotin G7-TTATTAA]”, for which the Kd was 8 nM in data set [1], 5 nM in data set [2], 13 nM in data set [3] and 8 nM in data set [4].

As for “TTGGGGTTATTAAGGGAGGGCGGGGGTT [G7-TTATTAA]”, the values for the Kd in data set [5], in data set [6] and in data set [7] were 90 nM, 50 nM and 28 nM, respectively.

Turning to “TTGGGGTTATTTTGGGAGGGCGGGGGTT [5'-biotin RHA0385]”, the Kd in data set [1] was 2 nM; in data set [2] it was 4 nM; in data set [3], 8 nM; in data set [4], 5 nM.

Take TTGGGGTTATTTTGGGAGGGCGGGGGTT [RHA0385]: the Kd came to 7 nM in data set [5], 12 nM in data set [6] and 14 nM in data set [7].

Usually Kd stands for a measure of binding affinity in units of concentration.
